Data taken from IntAct's records for PubMed 25332407.

B1: Nuclear distribution protein nudE homolog 1 (Homo sapiens), Q9NXR1 (parent)
chain: MEDSGKTFSSEEEEANYWKDLAMTYKQRAENTQEELREFQEGSREYEAELETQLQQIETRNRDLLSENNRLRMELETIKEKFEVQHSEGYRQISALEDDLAQTKAIKDQLQKYIRELEQANDDLERAKRATIMSLEDFEQRLNQAIERNAFLESELDEKENLLESVQRLKDEARDLRQELAVQQKQEKPRTPMPSSVEAERTDTAVQATGSVPSTPIAHRGPSSSLNTPGSFRRGLDDSTGGTPLTPAARISALNIVGDLLRKVGALESKLASCRNLVYDQSPNRTGGPASGRSSKNRDGGERRPSSTSVPLGDKGLDTSCRWLSKSTTRSSSSC

Variants of: B1
Conditions: with 1433e_human YWHAE

Row | Variant | effect of a mutation on the interaction
1 | S214A | with no effect
2 | S214F | decreasing interaction strength

Second part, the variant after the results:

Row | effect of a mutation on the interaction | Variant
3 | decreasing interaction strength | T215A
4 | with no effect | R234C
